Measurements reported in patent US6319685A (Unigene Laboratories, Inc., priority 1987, dated 2001).
One block for each molecule: values may come before it. Residues, ends and D or L forms follow the SMILES beside them.

Legend:
[1] = target: T1, alpha-amidating enzyme (Rattus norvegicus, UniProt P14925); experiment: co-factor requirement of alpha-amidating enzyme for maximal activity; format: biochemical; conditions: in vitro, with peptide substrate, oxygen and L-ascorbic acid
T1 sequence (P14925 36-976): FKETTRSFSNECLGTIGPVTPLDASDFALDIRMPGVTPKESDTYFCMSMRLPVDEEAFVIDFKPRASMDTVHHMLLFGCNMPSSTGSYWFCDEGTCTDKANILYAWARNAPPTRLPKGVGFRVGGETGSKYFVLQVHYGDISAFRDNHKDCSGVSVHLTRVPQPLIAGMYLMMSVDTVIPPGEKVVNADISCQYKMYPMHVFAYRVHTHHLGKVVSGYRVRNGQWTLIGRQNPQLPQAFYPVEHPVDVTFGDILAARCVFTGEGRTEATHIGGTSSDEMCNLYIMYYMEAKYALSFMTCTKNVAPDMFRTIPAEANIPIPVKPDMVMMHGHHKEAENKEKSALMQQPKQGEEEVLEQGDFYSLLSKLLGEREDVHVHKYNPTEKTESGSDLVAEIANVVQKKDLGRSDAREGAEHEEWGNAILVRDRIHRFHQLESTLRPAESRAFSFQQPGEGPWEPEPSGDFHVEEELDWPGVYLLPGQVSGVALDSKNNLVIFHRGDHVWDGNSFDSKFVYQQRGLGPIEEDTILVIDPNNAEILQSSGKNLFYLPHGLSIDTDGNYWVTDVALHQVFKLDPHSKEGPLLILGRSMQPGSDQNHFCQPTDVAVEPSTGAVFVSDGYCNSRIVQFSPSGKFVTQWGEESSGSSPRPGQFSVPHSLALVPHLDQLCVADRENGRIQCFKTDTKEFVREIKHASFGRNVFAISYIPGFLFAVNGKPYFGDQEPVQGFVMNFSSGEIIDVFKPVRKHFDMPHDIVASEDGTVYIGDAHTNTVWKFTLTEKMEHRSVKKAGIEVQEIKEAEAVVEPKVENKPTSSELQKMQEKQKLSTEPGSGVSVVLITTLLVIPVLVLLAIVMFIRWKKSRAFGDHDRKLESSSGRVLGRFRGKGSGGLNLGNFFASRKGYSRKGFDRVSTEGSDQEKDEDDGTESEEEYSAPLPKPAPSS

[2] = target: T1, alpha-amidating enzyme; experiment: comparison of assay systems / kinetic analysis of amidation of dansyl-Tyr-Val-Gly, D-Tyr-Val-Gly and 125I-D-Tyr-Val-Gly; format: biochemical
Procedure: (§1) I. Monodansyl L-Tyr-Val-Gly
(§2) The concentration of enzyme used in all experiments was left constant except where noted.
(§3) The reaction mixture for the conversion of the monodansyl substrate contained:
(§4) 5 μl of 100 ug/mL bovine pancreatic catalase
(§5) 5 μl containing 2 nmoles of substrate
(§6) The samples were prepared in duplicate and incubated at 37° C. for 10, 20 and 30 minutes time periods. The enzymatic reaction was halted by the addition of 10 ul 500 mM EDTA. Substrate and product were separated by RP HPLC using an Hewlett Packard-1090 liquid chromatography system, and quantitation was achieved using a HP-3392 integrator.
(§7) D-Tyr-Val-Gly and D-Tyr-Val-NH2 were iodinated using iodobeads from Pierce Chemical Company. The radiolabeied substrate and product were used to calibrate a sulfyl-propyl cation-exchange column. ^125 I D-Tyr-Val-Gly was added to 650 uM D-Tyr-Val-Gly and used as the substrate. The reaction mixture for the conversion of monodansyl substrate contained:
(§8) Samples were incubated for 10, 20, 30 minutes at 37° C. The reaction was stopped by addition of 500 mM EDTA. […] The conversion of radiolabeled substrate to product was linear with respect to time.
The reaction conditions used for the amidation of D-Tyr-Val-Gly are identical to those described for the dansyl and iodinated substrates. Substrate concentration in the reaction mixture was 650 uM. Separation of substrate and product is achieved by gradient elution on RP-HPLC using a HP-1090 liquid chromatography system. The column effluents were monitored at 280 nm. The level of sensitivity for this assay is much lower than that for either dansyl or iodinated substrates.
Furthermore, a somewhat more rigorous kinetic analysis has also been employed to compare the dansyl-Tyr-Val-Gly (Applicants') assay to the D-Tyr-Val-Gly (prior art) assay.

[3] = substrate: CC(C)[C@H](NC(=O)[C@H](N)Cc1ccc(O)cc1)C(=O)NCC(=O)O; experiment: as above; format: biochemical, rat; conditions: 37.0 °C
Procedure: as §1, §2, §3, §4, §5, §6, §7, §8
The reaction conditions used for the amidation of D-Tyr-Val-Gly are identical to those described for the dansyl and iodinated substrates. Substrate concentration in the reaction mixture was 650 uM. […] The column effluents were monitored at 280 nm. […]

[4] = pH optimum of alpha-amidating enzyme; format: biochemical; conditions: CA-77 cell tissue culture media enzyme
Procedure: 2. The optimum pH for the activity of the enzyme was determined to be pH 5.0-5.5 using N dansyl Tyr-Val-Gly as the substrate (FIG. XVI). However, due to the enhanced stability of the enzyme at neutral pH, it may be beneficial to carry out the amidation reaction at such pH.

[5] = specific alpha-amidating activity, conversion of Dansyl-D-Tyr-Val-Gly to Dansyl-D-Tyr-Val-CONH2; format: biochemical
Procedure: These and other objects will become apparent from a thorough reading of the present disclosure. […] All specific activity units set forth herein are based upon the conversion of Dansyl-D-Try-Val-Gly-COOH to Dansyl-D-Tyr-Val-CONH2. One mU is defined as the amount of activity needed to convert one nanomole (nmole) of Dansyl-D-Tyr-Val-Gly-COOH to one nmole of Dansyl-D-Tyr-Val-CONH2 per minute at 37° C. and pH 7.0 in the presence of ascorbate ions at a concentration of 3 mM (based on total reaction mixture including enzyme, substrate, co-factors, etc.), molecular oxygen in a molar excess over substrate and a concentration of cupric ions effective to maximize activity (usually about 2 μM depending on the state of purity of the enzyme).
Each purification step can be monitored for both protein content and the level of alpha-amidation activity. This information is used to calculate the specific activity of the enzyme which serves as an indicator of the relative purity of the enzyme.
Sephacryl S-300 (Pharmacia) was equilibrated in 50 mM Tris HCl pH 7.0 and poured into a K 50/100 column (Pharmacia) according to the manufacturer's instructions. The bed volume of the column was approximately 1.3 liters. The Sample was loaded onto the column in a volume representing approximately 3 percent of the bed volume of the column. Proteins were eluted from the column in 50 mM Tris HCl pH 7.0 at a flow rate of approximately 2 ml per minute.
as §3
The samples were prepared in duplicate and incubated at 37° C. for 10, 20 and 30 minutes time periods. The enzymatic reaction was halted by the addition of 10 ul 500 mM EDTA.

effect of addition on enzymatic activity [1]: substantially increased
Molecule: O=S(=O)([O-])[O-].[Cu+2] [copper sulfate]

Molecule: CC(C)[C@H](NC(=O)[C@H](N)Cc1ccc(O)cc1)C(=O)NCC(=O)O [D-Tyr-Val-Gly] (HELM PEPTIDE1{[dY].V.G}$$$$V2.0)
maximal velocity relative to dansyl-Tyr-Val-Gly ([2]; comparison of Vmax): approximately 1.48 times

fractional conversion relative to dansyl-Tyr-Val-Gly ([2]; each time point (10, 20, 30 minutes), 37° C.): approximately 1.55 times
Molecule: ^125 I-D-Tyr-Val-Gly [125I-D-Tyr-Val-Gly]

Molecule: catalase
effect of addition on enzymatic activity [1]: substantially increased

B1: alpha-amidating enzyme (Rattus norvegicus) (protein)
chain: FKETTRSFSNECLGTIGPVTPLDASDFALDIRMPGVTPKESDTYFCMSMRLPVDEEAFVIDFKPRASMDTVHHMLLFGCNMPSSTGSYWFCDEGTCTDKANILYAWARNAPPTRLPKGVGFRVGGETGSKYFVLQVHYGDISAFRDNHKDCSGVSVHLTRVPQPLIAGMYLMMSVDTVIPPGEKVVNADISCQYKMYPMHVFAYRVHTHHLGKVVSGYRVRNGQWTLIGRQNPQLPQAFYPVEHPVDVTFGDILAARCVFTGEGRTEATHIGGTSSDEMCNLYIMYYMEAKYALSFMTCTKNVAPDMFRTIPAEANIPIPVKPDMVMMHGHHKEAENKEKSALMQQPKQGEEEVLEQGDFYSLLSKLLGEREDVHVHKYNPTEKTESGSDLVAEIANVVQKKDLGRSDAREGAEHEEWGNAILVRDRIHRFHQLESTLRPAESRAFSFQQPGEGPWEPEPSGDFHVEEELDWPGVYLLPGQVSGVALDSKNNLVIFHRGDHVWDGNSFDSKFVYQQRGLGPIEEDTILVIDPNNAEILQSSGKNLFYLPHGLSIDTDGNYWVTDVALHQVFKLDPHSKEGPLLILGRSMQPGSDQNHFCQPTDVAVEPSTGAVFVSDGYCNSRIVQFSPSGKFVTQWGEESSGSSPRPGQFSVPHSLALVPHLDQLCVADRENGRIQCFKTDTKEFVREIKHASFGRNVFAISYIPGFLFAVNGKPYFGDQEPVQGFVMNFSSGEIIDVFKPVRKHFDMPHDIVASEDGTVYIGDAHTNTVWKFTLTEKMEHRSVKKAGIEVQEIKEAEAVVEPKVENKPTSSELQKMQEKQKLSTEPGSGVSVVLITTLLVIPVLVLLAIVMFIRWKKSRAFGDHDRKLESSSGRVLGRFRGKGSGGLNLGNFFASRKGYSRKGFDRVSTEGSDQEKDEDDGTESEEEYSAPLPKPAPSS
Km [3]: 37 µM | Vmax [3]: 31 pmol product/min/μl

pH optimum [4]: 5.0-5.5
B2: Peak IV enzyme (CA-77): higher molecular weight form from CA-77 medium, corresponds to peak III derived from MTC tumors (protein, UniProt P14925 36-976, looked up)
Peptidylglycine …: FKETTRSFSNECLGTIGPVTPLDASDFALDIRMPGVTPKESDTYFCMSMRLPVDEEAFVIDFKPRASMDTVHHMLLFGCNMPSSTGSYWFCDEGTCTDKANILYAWARNAPPTRLPKGVGFRVGGETGSKYFVLQVHYGDISAFRDNHKDCSGVSVHLTRVPQPLIAGMYLMMSVDTVIPPGEKVVNADISCQYKMYPMHVFAYRVHTHHLGKVVSGYRVRNGQWTLIGRQNPQLPQAFYPVEHPVDVTFGDILAARCVFTGEGRTEATHIGGTSSDEMCNLYIMYYMEAKYALSFMTCTKNVAPDMFRTIPAEANIPIPVKPDMVMMHGHHKEAENKEKSALMQQPKQGEEEVLEQGDFYSLLSKLLGEREDVHVHKYNPTEKTESGSDLVAEIANVVQKKDLGRSDAREGAEHEEWGNAILVRDRIHRFHQLESTLRPAESRAFSFQQPGEGPWEPEPSGDFHVEEELDWPGVYLLPGQVSGVALDSKNNLVIFHRGDHVWDGNSFDSKFVYQQRGLGPIEEDTILVIDPNNAEILQSSGKNLFYLPHGLSIDTDGNYWVTDVALHQVFKLDPHSKEGPLLILGRSMQPGSDQNHFCQPTDVAVEPSTGAVFVSDGYCNSRIVQFSPSGKFVTQWGEESSGSSPRPGQFSVPHSLALVPHLDQLCVADRENGRIQCFKTDTKEFVREIKHASFGRNVFAISYIPGFLFAVNGKPYFGDQEPVQGFVMNFSSGEIIDVFKPVRKHFDMPHDIVASEDGTVYIGDAHTNTVWKFTLTEKMEHRSVKKAGIEVQEIKEAEAVVEPKVENKPTSSELQKMQEKQKLSTEPGSGVSVVLITTLLVIPVLVLLAIVMFIRWKKSRAFGDHDRKLESSSGRVLGRFRGKGSGGLNLGNFFASRKGYSRKGFDRVSTEGSDQEKDEDDGTESEEEYSAPLPKPAPSS
modifications: higher molecular weight form
specific activity ([5]; CA-77 media, purified enzyme, pH 7.0): approximately 1500 mU/mg protein

B3: peak eluting at 190 mM NaCl: enzyme activity peak from Mono Q HR 5/5 at pH 8.0 eluting at 190 mM NaCl (protein, UniProt P14925 36-976, looked up)
Peptidylglycine …: FKETTRSFSNECLGTIGPVTPLDASDFALDIRMPGVTPKESDTYFCMSMRLPVDEEAFVIDFKPRASMDTVHHMLLFGCNMPSSTGSYWFCDEGTCTDKANILYAWARNAPPTRLPKGVGFRVGGETGSKYFVLQVHYGDISAFRDNHKDCSGVSVHLTRVPQPLIAGMYLMMSVDTVIPPGEKVVNADISCQYKMYPMHVFAYRVHTHHLGKVVSGYRVRNGQWTLIGRQNPQLPQAFYPVEHPVDVTFGDILAARCVFTGEGRTEATHIGGTSSDEMCNLYIMYYMEAKYALSFMTCTKNVAPDMFRTIPAEANIPIPVKPDMVMMHGHHKEAENKEKSALMQQPKQGEEEVLEQGDFYSLLSKLLGEREDVHVHKYNPTEKTESGSDLVAEIANVVQKKDLGRSDAREGAEHEEWGNAILVRDRIHRFHQLESTLRPAESRAFSFQQPGEGPWEPEPSGDFHVEEELDWPGVYLLPGQVSGVALDSKNNLVIFHRGDHVWDGNSFDSKFVYQQRGLGPIEEDTILVIDPNNAEILQSSGKNLFYLPHGLSIDTDGNYWVTDVALHQVFKLDPHSKEGPLLILGRSMQPGSDQNHFCQPTDVAVEPSTGAVFVSDGYCNSRIVQFSPSGKFVTQWGEESSGSSPRPGQFSVPHSLALVPHLDQLCVADRENGRIQCFKTDTKEFVREIKHASFGRNVFAISYIPGFLFAVNGKPYFGDQEPVQGFVMNFSSGEIIDVFKPVRKHFDMPHDIVASEDGTVYIGDAHTNTVWKFTLTEKMEHRSVKKAGIEVQEIKEAEAVVEPKVENKPTSSELQKMQEKQKLSTEPGSGVSVVLITTLLVIPVLVLLAIVMFIRWKKSRAFGDHDRKLESSSGRVLGRFRGKGSGGLNLGNFFASRKGYSRKGFDRVSTEGSDQEKDEDDGTESEEEYSAPLPKPAPSS
modifications: Mono Q fraction
specific alpha-amidating activity ([5]; after Mono Q chromatography at pH 8.0, rat MTC tumor): at least 80 mU/mg protein
